# According to US20100136573:
# Target: Recombinant human GST-TDP-43 (N-terminal GST tag, full length), non-phosphorylated
# Sequence (chain, as listed by the source): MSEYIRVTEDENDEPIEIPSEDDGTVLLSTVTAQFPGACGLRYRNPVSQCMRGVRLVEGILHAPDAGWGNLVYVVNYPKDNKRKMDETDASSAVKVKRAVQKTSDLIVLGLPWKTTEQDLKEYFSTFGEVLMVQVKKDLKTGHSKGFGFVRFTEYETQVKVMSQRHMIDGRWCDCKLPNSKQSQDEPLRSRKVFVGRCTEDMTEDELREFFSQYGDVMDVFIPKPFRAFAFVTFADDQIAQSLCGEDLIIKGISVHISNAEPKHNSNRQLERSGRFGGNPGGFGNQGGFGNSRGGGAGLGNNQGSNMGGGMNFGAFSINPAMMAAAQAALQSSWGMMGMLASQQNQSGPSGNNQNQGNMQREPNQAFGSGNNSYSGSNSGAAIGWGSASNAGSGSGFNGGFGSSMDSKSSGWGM
protein,measurement,value
active human recombinant caspase-3 (CHEMICON) (protein) SGISLDNSYKMDYPEMGLCIIINNKNFHKSTGMTSRSGTDVDAANLRETFRNLKYEVRNKNDLTREEIVELMRDVSKEDHSKRSSFVCVLLSHGEEGIIFGTNGPVDLKKITNFFRGDRCRSLTGKPKLFIIQACRGTELDCGIETDSGVDDDMACHKIPVEADFLYAYSTAPGYYSWRNSKDGSWFIQSLCAMLKQYADKLEFMHILTRVNRKVATEFESFSFDATFHAKKQIPCIVSMLTKELYFYH,"in vitro cleavage, SDS-PAGE stained with Coomassie","cleavage of full length TDP-43 by purified cleaved caspase-3, resulting in three distinct fragments of approximately 42, 35, and 25 kD"
